In the experiment the target is T1, CD30 (analyte in SPR) (UniProt P28908 19-379, limits assumed).
T1 construct: also called Cluster of Differentiation 30; Ki-1
T1 sequence (looked up): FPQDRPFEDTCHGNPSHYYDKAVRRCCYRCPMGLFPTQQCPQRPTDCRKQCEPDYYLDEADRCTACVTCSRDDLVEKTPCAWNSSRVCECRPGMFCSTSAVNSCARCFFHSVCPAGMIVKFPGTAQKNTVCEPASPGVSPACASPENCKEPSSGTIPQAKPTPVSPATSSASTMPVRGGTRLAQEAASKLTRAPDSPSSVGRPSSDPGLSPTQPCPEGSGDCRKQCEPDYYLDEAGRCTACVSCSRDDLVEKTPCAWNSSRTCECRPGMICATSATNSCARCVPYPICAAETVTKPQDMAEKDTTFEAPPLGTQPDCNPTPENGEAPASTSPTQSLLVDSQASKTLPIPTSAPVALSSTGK
Kind of experiment: SPR, 25° C. pH 7.4, IgG1 captured on chip, CD30 as analyte, average value. The text has this: Using the VH and VL domains as noted above, the inventors prepared various CD30 binding constructs, and exemplary results for scFv and IgG1 constructs are shown below.
A general note: Surface plasmon resonance follows binding to a sensor surface in real time, without labels.

The record followed here is patent US20220275098A1 (NANTBIO, published 2022).

B1: anti-CD30 IgG1 (52-2) (antibody, V domains shown)
VH: EVQLVESGGGLVQPGGSLRLSCAASGFTFSSYYMHWVRQAPGKGLEWVSAISWSGGSTYYADSVKGRFTISRDNSKNTLYLQMNSLRAEDTAVYYCARDRFMPFIPNTLGFDVWGQGTLVTVSS
VL: DIQMTQSPSSLSASVGDRVTITCQASQDISNYLNWYQQKPGKAPKLLIYVASNLETGVPSRFSGSGSGTDFTFTISSLQPEDIATYYCQQDADVPLTFGQGTKVEIK
notes: also called aCD30 clone 52-2 IgG1
With B1, the Kd – broadly, a measure of binding affinity in units of concentration – amounted to 3 nM.

B2: anti-CD30 IgG1 (52-38) (antibody, V domains shown)
VH: EVQLVESGGGLVQPGGSLRLSCAASGFTFSSYWMHWVRQAPGKGLEWVSAISWSGDSTYYADSVKGRFTISRDNSKNTLYLQMNSLRAEDTAVYYCARDRSATWYYLGLGFDVWGQGTLVTVSS
VL: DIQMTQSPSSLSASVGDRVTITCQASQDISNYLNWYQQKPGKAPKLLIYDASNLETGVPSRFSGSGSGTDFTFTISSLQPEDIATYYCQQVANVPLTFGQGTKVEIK
notes: also called aCD30 clone 52-38 IgG1
In turn, B2 showed a Kd of 2.5 nM.

B3: anti-CD30 IgG1 (52-5) (antibody, V domains shown)
VH: EVQLVESGGGLVQPGGSLRLSCAASGFTFSSYYMHWVRQAPGKGLEWVSAISWSGGSTYYADSVKGRFTISRDNSKNTLYLQMNSLRAEDTAVYYCARDRFMPFIPNTLGFDVWGQGTLVTVSS
VL: DIQMTQSPSSLSASVGDRVTITCQASQDISNYLNWYQQKPGKAPKLLIYDASNLETGVPSRFSGSGSGTDFTFTISSLQPEDIATYYCQQDADVPLTFGQGTKVEIK
notes: also called aCD30 clone 52-5 IgG1
Molecule B3 had a Kd of 22.3 nM.
